Target: 移除了糖基化位点(Asn-38)的H7 HA(A/鸡/意大利/99假病毒) (influenza A virus A/chicken/Italy/99 (H7))
Test: cell-based or functional assay

For CR6261 (antibody), the H7假病毒中和 IC50 was > 50 µg/mL.

With F10 (antibody) the H7假病毒中和 IC50 was > 50 µg/mL.

Reference: patent publication CN107417789A
